Values of other authors, collected in paper PMC2650391.
pKd: −log10 of the molar value.

Molecular target: Histone H3K4me3 peptide (Homo sapiens) (UniProt P68431)

Chain of ING2 PHD (Q9H160 209-264): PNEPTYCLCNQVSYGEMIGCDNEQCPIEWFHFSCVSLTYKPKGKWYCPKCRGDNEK

Substance: ING2 PHD (from UniProt Q9H160)
- pKd: 5.82
